# Laboratory results published in the nanobody polyreactivity screen of Harvey et al. (2022).
# Experiment: yeast display, Sf9 membrane polyspecificity reagent, FACS + sequencing; frameworks hold sequencing errors
# In short: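 After 36–48 hours of galactose induction, yeast (Saccharomyces cerevisiae BJ5465) displaying a synthetic nanobody library were stained at 4 °C for 1 hour with 10% biotinylated, detergent-solubilized Sf9 membrane reagent. Streptavidin microbeads enriched the stained cells before FACS sorting into low and high (top ~1%) gates on anti-HA and streptavidin fluorescence. Each clone's polyreactivity label reflects its gate of origin.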
row,Sequence,polyreactivity (PSR sort gate)
1,QVQLVESGGGLVQAGGSLRLSCAASGFTVIDYAMGWYSQAPGKERELVAAITTGTITYYADSVTGRFTISRDNAKNTVYLQMNSLKPEDTAVYYCNADWLTLATTMNYWGQGTQVTVSS,low polyreactivity
2,QVQLVESGGGLVQAGGSLRLSCAASGSTFESNAMGWYRQAPGKERELVAAISRGRTNYADSVKGRFTISRDNAKNTVYLQMNSLKPEDTAVYYCAADGLSNVRQMDYWGQGTQVTVSS,low polyreactivity
3,QVQLQESGGGLVQAGGSLRLSCAASGTISYAPHMGWYRQAPGKERELVAGITIGGTTYYADIVIGRFTISRDNAKNTVFLQMNSLSPGDTAVYYCAAHSEQYTPFYYWGQGTQVTVSS,low polyreactivity
4,QVQLVESGGGLVQAGGSLRLSCAASGRILTYNAMGWYRQAPGKERELVATISARGSRTYYADSVKGRFTISRDNAKNTVYLQMNSLKPEDTAVYYCNAAVGYYSYSYYTKVGVDYWGQGTQVTVSS,high polyreactivity
5,QVQLVESGGGLVQAGGSLRLSCAASGTFFGYALGWYRQAPGKERELVAAITPGGSTYYADSVKGRFTISRDNAKNTVYLQMNSLKPEDTAVYYCARVYSRWSYRYDYWGQGTQVTVSS,low polyreactivity
6,QVQLVESGGGLVQAGGSLRLSCAAYGSTFGWYTMGWYRQAPGKERELVATISYGGGITNYADSVKGRFTISRDNAKITVYLQMNSLKPEDTADYDCAVDNTGRSWPYDYWGQGTQVTVSS,low polyreactivity
7,QVQLVESGGGLVQAGGSLRLSCAASGFTLSDYAMGGYRKAAGTERELVAGISSGGSTNYADSVKGRFTISRDNAKNTVYLQMNSLKPEDTAVYYCATRGTFQSHIRSGYWGQGTQVTVSS,high polyreactivity
8,QVQLVESGGGLVQAGGSLRLSCAASGFTFARYAMGWYRQAPGKERELVAAITYSGGRTYYAVSVKGRFTISRDNAKNTVYLQMNSLKPEDTAVYYCAVKHSSPGRYYYWGQGTQVTVSS,high polyreactivity
9,QVQLVESGGGLVQAGGSLRLSCAASGIIFGIYDMGWSRQAPGKERELVAAIRRSGGSTYYADSVKGRFTISRDNAKNTVYLQMNSLKPEDTAVYYCAATRHSRVRGGDYWGQGTQVTVSS,low polyreactivity
10,QVQLVESGGGLVHAGCSLRLSCAATGIIFAWYVMGWYRPAPGKERELVAAITQSGGSTFYADSVKGRFTISRDNAKNTVYLQMNSLKPEDTAVYYCNTEDFFNVPEMDSWGQGTQVTVSS,low polyreactivity
11,QVQLVESGGGLVQAGGSLRLSCAASGMTFDYYAMGWYRQAPGKERELVAAIRSGGSTNYADSVKGRFTISRDNAKNTVYLQMNSLKPEDTAVYYCAAVRYFPWYDYWGQGTQVTVSS,high polyreactivity
12,QVQLVESGGGLVQAGGSLRLSCAASGSIFDNYAMGWYRQAPGKEREFVAGISWSGGSTRYADSVKGRFTISRDNAKNTVYLQMNSLKPEDTAVYYCNTGYGLVDFLYGYYYWGQGTQVTVSS,low polyreactivity
13,QVQLVESGGGLVQAGGSLRLSCAASGSIFRWNAMGWYRQSPGKERELLAAIDSGGSTYADSVKGRFTISRYNAKNTVYLQMYSLKPEDTAVYYCAAEIPDEWPYDYWGQGTQVTVSS,low polyreactivity
14,QVQRVESGGGLVQAGGSLRLSCAASGLTFRYYAVGWYRQAPGKERELVAAITSNGGRTYYADSVKGRFTISRDNAKNTVYLQMNSLKPEDTAVYYCAAVYLYYGGVDYWGQGTQVTVSS,high polyreactivity
15,QVQLVESGGGLVQAGGSLRLSCAASGSIFLYYAMGWYRQAPGKERELVAAISQNGGSTYYADSVKGRFTISRDNAKNTVYLQMNSLKPEDTAVYYCNKYSFALRYDYWGQGTQVTVSS,low polyreactivity
16,QVQLVESGGGLVQAGGSLRLSCAASGRIFFPYAMGWYRQAPGKERELVAVITSGGTTYYADSVKGRFRISRDNAKNTVYLQMNSLKTEDTAVYYCAVHWYSYRYAATMDYWGQGTQVTVSS,high polyreactivity
17,QVQLVESGGGLVQAGGSLRLSCAASGRIFARNTMGWYRQAPGKERELVAAISWGGGRTYYADSVKGRFTISRDNAKNTVYLQMNSLKPEDTAVYYCAAETLQIPRGEYWGQGTQVTVSS,low polyreactivity
18,QVQLVESGGGLVQAGGSLRLSCAASGRTFGPYAMGWYRQAPGKERELVAAISRSGSSTYYADSVKGRFTISRDTGKNNVYLQMNSLKPEDTAVYDCAVARSSPEYYYWGQGTQVTVSS,high polyreactivity
19,QVQLQESGGGLVQAGASLRLSCAASSNNSTLDVMGWYRQAPGKEREFVASIGSGGITNYADSVKGRFTISRDNAKNTVYLQMNSLKPEDTAVYYCAVLIQAYTDLIYWGQGTQVTLSS,high polyreactivity
20,QVQLVESGGRLVQAGGSLRLSCAASGSTFGRYTMGWYRQAPGKERELVTAITSSGDSTYYADSVKGRFTISRDNAKNTVYLQMNSLKPEDTAVYDCAADYADLNDYWGQGTQVTVSS,low polyreactivity
21,QVQLQESGGGLVQASGSLRLSCAASGNIFPDYVMGWYRLAPGKEREFVANITGGSTTNYADSVKGRFTISRDNAKNTVYLQMNSLKPEDTAVYYCAVNFGTVVLYLYWGQGTQVTVSS,high polyreactivity
22,QVQRVESGRGLVQAGGSLRLRCAASGNIFPWSAMGWSRQAPGKERELVAAITSGGGSTYYGDSVKGRFTISRDNAKNTVYLQMNRLKPEDTAVYYCNAESAFVSYYSEDYDYWGQGTQVTVSS,low polyreactivity

row,Sequence,polyreactivity (PSR sort gate)
1,QVQLVESGGGLVQAGGSLRLSCAASGGIFGFNAMGWYRPAPGKERELVADISDGVRTNYADSVKGRFTISRDNAKNTVYLQMNSLKPEDTAVYYCATDGLFLAWAPLGALAFDYWGQGTQVTVSS,low polyreactivity
2,QVQLVESGGGLVQAGGSLRLSCAASGRTFSYNAIGWYRLAPGKERELVARISSGGSTNYADSVKGRFTISRDNAKNTVYLQMNSLKPEDTAVYYCNAVYRTYEYYWGQGTQVTVSS,high polyreactivity
3,QVQLVESGGGLVQAAGSLRLSCAASGITSRFYVMGWYRQAPGKERESVAAISTRGTSTYYADSVKGRLPISRDNAKNTVYLQMNSLKPEDTAVYYCAAVGGYPYQYPYGSWGQGSQVTVSS,high polyreactivity
4,QVQLVESGGGLVQAGGSLRLSCAASGRIFGVYAMGWYRQAPGKEREFVARISWHGGRTYYADSVKGRFTISRDNAKNTVYLQMNSLKPEDTAVYYCAADHGYPSRLDYWGQGTQVTVSS,high polyreactivity
5,QVQLVESGGGLVQAGGSLRLSCAASGITFGYNAMGWYRQAPGKERELVAAISWRVGSTSYADSVKGRFTISRDNAKNTVYLQMNSLKPEDTAVYYCAAVRYNYNFKMYYWGQGTQVTVSS,high polyreactivity
6,QVQLVESGGGLVQAGGSLRLSCAASGITFEPYDMGWYRQAPGKERELVAAISTTGGRTYYADSVKGRFTISRDNAKNTVYLQMNSLKPEDTAVYYCAARYTTRRRYDYWGQGTQVTVSS,high polyreactivity
7,QVQLVQSGGGLVQAGGSLRLSCAASGRIFGLNTMGWYRQAPGKERELVAAITSSAGSTYYADSVKGRFPISRDNAKNTVSLQMNSLKPEDTAVYYCAARVSYLGSFTSQRYYYWGQGTQVTVSS,high polyreactivity
8,QVQLVESGGGLVQAGGSLRLSCAASGSTFDFNAMGWYRQAPGKERELVAAITGSDGNTYYADSVKGRFTISRDNAKNTVYLQMNSLKPEDTAVYYCAADFSWWSKYVVLYDYWGQGTQVTVSS,low polyreactivity
9,QVQLVESRGGLVQAGGSLRLSCAASGRIYSVYDMGWYRQAPGKESEFVAAIRSSGDSTYYADSVKGRFTISRDNAKNTVYLQMNSLKPDDTAVYYCAADVYRYRVRGLNYWGQGTQVTVSS,high polyreactivity
10,QVQLVESGGGLVQAGGSLRLSCAASGLIFRFYAMGWYRQAPGKERELVAAISSRGGSTYYADSVKGRFTISRDNAKNTVYLQMNSLKPEDTAVYYCAAVFSLIASSYDYWGQGTQVTVSS,high polyreactivity
11,QVQLVESGGGLVQAGGSLRLSCAASVPTFPFNAMGWYRQAPGKERELVAAISWRDGRTYYADSVKGRFTISRDNAKNTVYLQMNSLKPEDTAVYYCNVVKRRSDWGMDYWGQGTKVTVSS,high polyreactivity
12,QVQLVESGGGLVQAGGSLRLSCAASGSTFAYYAMGWYRPAPGTERELVAAISKSGGSTYYADSVKGRFTISRDNAKNTFYIQMISLKPEDTAVYYCAAGKFRYRSRFDFWGQGTQVTVSS,high polyreactivity
13,QVQLVESVGGLVQAGGSLRLSCAASGFNFDYYTMGWYRQAPGKEREFVAAINRRGDITYYADSVKGRFTISRDNAKNTVYLQMNSLKPEDTAVYYCAANLTCSSRYEYGYWGQGTQVTVSS,low polyreactivity
14,QVQLVESGGGLVQAGGSLRLSCAASGSIFTDNAMGRYRQAPGKERELVAAITSNGGSTYYADSVKGRFTISRDNAKNTVYLQMNSLKPEDTAVYYCAADSLYREDDYWGQGTQVTVSS,low polyreactivity
15,QVQLVESGVGLVQAGGSLRLSCASSGFTFYYYAMGWYRQAPGKERELVAAIDTSDGSTYYADSVKGRFTISRDNAKNTVYLQMNSLKPEDTAVYYCAAEVDWVPFLLDYWGQGTQVTVSS,low polyreactivity
16,QVQLVESGGGIVQAGGSLRLSCAASGRTLQRNAMGWYRQAPGKERELVAAISWSGASTYYADSVKGRFTISRDNAKNTVYLQMNSLKPEDTAVYYCAATYIDRGNIYDYWGQGTQVTVSS,high polyreactivity
17,QVQLVESGGGLVQAGGSLRLSCAASGSTFRYYAMGWYRQAPGKERELVAAITYRATSTYYADSVEGRFTISRDNAKNTVYLQMNSLKPEYTAVYYCAAYSTYSRSDYWGQGTQVTVSS,high polyreactivity
18,QVQLVESGGGLVQAGGSLRLSCAASGLIFLPYAMGWYRQAPGKERELVAAIRWSDDSTYYADSVKGRFTILRDNAKNTVYLQMNSLKPEDTAVYYCNAYVYRPSYIYNYYYEYDYWGQGTQVTVSS,high polyreactivity
19,QVQLVESGGGLVQAGGSLRLSCAASGRTFDGYTMGWYRQAPGKERELVAAIRRSGGSTYYADSVKGRFTISRDNAKNTVYLQINSLNPEDTAVYYCAASWRDIYRHYNVYPYDYWGQGTQVTVSS,low polyreactivity
20,QVQLEESGGGLVQAGGSLRLSCAGSGFTFGVYAMGWYRQAPGKERELVAVIRGSGGSTYYADSVKGRFTISRDKAKNTVYLQMNSLKPEDTAGYYCAARRYQYVWSLYNYWGQGTQVTVSS,high polyreactivity
21,QVQLVESGGGLVQAGGSLRLSCAASGIIFIPYAMGWYRQAPGKEREFVAAISSSGGSTYYADSVKGRFTISRDNAKNTVYLQMNSLKPEDTSVYYCAAQYVSRRYSRYNYWGQGTQVTVSS,high polyreactivity
